Measured values as given in US20240116985A1 (published 2024).
Starred links: 1 amine or outer side, 2 acyl side, 3 side chain; linkers in the order of their positions; H or OH if unused. Positions of bridges follow the written chain, without caps; N, C: chain ends. Non-standard residues stand in square brackets, D forms with d. Primed or numbered codes have the meaning given here. *: point of attachment. (4CF3PhAc)GA = (S)-2-amino-3-(N-(carboxymethyl)-2-(4-(trifluoromethyl)phenyl)acetamido)propanoic acid, O=C(Cc1ccc(C(F)(F)F)cc1)N(CC(=O)[*:3])C[C@H](N[*:1])C(=O)[*:2]; (PfPhAc)GA = (S)-2-amino-3-(N-(carboxymethyl)-2-(perfluorophenyl)acetamido)propanoic acid, O=C(Cc1c(F)c(F)c(F)c(F)c1F)N(CC(=O)[*:3])C[C@H](N[*:1])C(=O)[*:2]; (MePipAc)GA = (S)-2-amino-3-(N-(carboxymethyl)-2-(4-methylpiperazin-1-yl)acetamido)propanoic acid, CN1CCN(CC(=O)N(CC(=O)[*:3])C[C@H](N[*:1])C(=O)[*:2])CC1; (NdiMeButC)GAbu = (S)-2-amino-4-(N-(carboxymethyl)-4-(dimethylamino)butanamido)butanoic acid, CN(C)CCCC(=O)N(CC[C@H](N[*:1])C(=O)[*:2])CC(=O)[*:3]; PyrS2″ = (S)-3-amino-1-((pent-4-en-1-yloxy)carbonyl)pyrrolidine-3-carboxylic acid (stapling residue), C=CCCCOC(=O)N1CC[C@@](N[*:1])(C(=O)[*:2])C1; (MorphAc)GA = (S)-2-amino-3-(N-(carboxymethyl)-2-morpholinoacetamido)propanoic acid, O=C(CN1CCOCC1)N(CC(=O)[*:3])C[C@H](N[*:1])C(=O)[*:2]; PyrS2 = (S)-3-amino-1-((pent-4-en-1-yloxy)carbonyl)pyrrolidine-3-carboxylic acid, C=CCCCOC(=O)N1CC[C@@](N[*:1])(C(=O)[*:2])C1; PyrS1 = (S)-3-amino-1-((but-3-en-1-yloxy)carbonyl)pyrrolidine-3-carboxylic acid, C=CCCOC(=O)N1CC[C@@](N[*:1])(C(=O)[*:2])C1; (Pic)GA = (S)-2-amino-3-(N-(carboxymethyl)picolinamido)propanoic acid, O=C(c1ccccn1)N(CC(=O)[*:3])C[C@H](N[*:1])C(=O)[*:2]; B5(22) = 2-amino-2-(pent-4-en-1-yl)hept-6-enoic acid (two alkene side chains), C=CCCCC(CCCC=C)(N[*:1])C(=O)[*:2]; B5(3) = 2,2-bis(4-pentenyl)glycine (stitching residue), C=CCCCC(CCCC=C)(N[*:1])C(=O)[*:2]; Me3AdamantC = 3,5,7-trimethyladamantane-1-carbonyl, CC12CC3(C)CC(C)(C1)CC(C(=O)*)(C2)C3; Me2NCBz = 4-((dimethylamino)methyl)benzoyl on Lys side chain, CN(C)Cc1ccc(C(=O)*)cc1; B6 = 2-amino-2-(hex-5-en-1-yl)oct-7-enoic acid, C=CCCCCC(CCCCC=C)(N[*:1])C(=O)[*:2]; Phe(3-COOH) = N[C@@H](Cc1cccc(C(=O)O)c1)C(=O)O; Phe(2-CF3) = N[C@@H](Cc1ccccc1C(F)(F)F)C(=O)O; Bta = N[C@@H](Cc1csc2ccccc12)C(=O)O; αAllylPro = C=CC[C@@]1(C(=O)O)CCCN1; tBuAla = CC(C)(C)C[C@H](N)C(=O)O; 3Thi = N[C@@H](Cc1ccsc1)C(=O)O; AdamantC = not defined here; PyrS2(4) = not defined here; Octanoyl = CCCCCCCC(=O)*; Butyryl = CCCC(=O)*

T1: B-cat-Halo (beta-catenin HaloTag fusion expressed in HEK293 cells) (UniProt P35222 1-781)
T1 sequence (looked up): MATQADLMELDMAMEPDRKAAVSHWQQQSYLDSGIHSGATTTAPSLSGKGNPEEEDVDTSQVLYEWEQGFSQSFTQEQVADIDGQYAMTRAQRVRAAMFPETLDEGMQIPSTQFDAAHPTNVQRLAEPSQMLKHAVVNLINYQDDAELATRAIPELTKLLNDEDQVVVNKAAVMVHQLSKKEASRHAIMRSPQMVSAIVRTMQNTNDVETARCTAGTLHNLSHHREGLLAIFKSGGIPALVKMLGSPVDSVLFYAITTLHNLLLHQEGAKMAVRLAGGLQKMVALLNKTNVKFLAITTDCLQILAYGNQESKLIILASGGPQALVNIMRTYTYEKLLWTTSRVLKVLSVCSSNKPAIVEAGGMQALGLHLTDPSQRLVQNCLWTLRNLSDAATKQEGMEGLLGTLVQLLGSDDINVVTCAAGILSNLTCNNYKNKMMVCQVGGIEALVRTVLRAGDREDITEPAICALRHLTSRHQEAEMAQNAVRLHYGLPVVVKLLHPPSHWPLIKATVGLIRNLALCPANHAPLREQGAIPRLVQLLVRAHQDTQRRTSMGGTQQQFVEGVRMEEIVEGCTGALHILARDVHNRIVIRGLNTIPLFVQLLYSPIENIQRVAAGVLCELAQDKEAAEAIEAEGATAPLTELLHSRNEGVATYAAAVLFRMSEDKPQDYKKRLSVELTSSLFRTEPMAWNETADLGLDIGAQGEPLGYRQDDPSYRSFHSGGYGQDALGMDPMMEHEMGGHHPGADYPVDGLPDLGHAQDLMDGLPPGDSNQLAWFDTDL

T2: B-cat-Halo (UniProt P35222 1-781)
T2 sequence (looked up): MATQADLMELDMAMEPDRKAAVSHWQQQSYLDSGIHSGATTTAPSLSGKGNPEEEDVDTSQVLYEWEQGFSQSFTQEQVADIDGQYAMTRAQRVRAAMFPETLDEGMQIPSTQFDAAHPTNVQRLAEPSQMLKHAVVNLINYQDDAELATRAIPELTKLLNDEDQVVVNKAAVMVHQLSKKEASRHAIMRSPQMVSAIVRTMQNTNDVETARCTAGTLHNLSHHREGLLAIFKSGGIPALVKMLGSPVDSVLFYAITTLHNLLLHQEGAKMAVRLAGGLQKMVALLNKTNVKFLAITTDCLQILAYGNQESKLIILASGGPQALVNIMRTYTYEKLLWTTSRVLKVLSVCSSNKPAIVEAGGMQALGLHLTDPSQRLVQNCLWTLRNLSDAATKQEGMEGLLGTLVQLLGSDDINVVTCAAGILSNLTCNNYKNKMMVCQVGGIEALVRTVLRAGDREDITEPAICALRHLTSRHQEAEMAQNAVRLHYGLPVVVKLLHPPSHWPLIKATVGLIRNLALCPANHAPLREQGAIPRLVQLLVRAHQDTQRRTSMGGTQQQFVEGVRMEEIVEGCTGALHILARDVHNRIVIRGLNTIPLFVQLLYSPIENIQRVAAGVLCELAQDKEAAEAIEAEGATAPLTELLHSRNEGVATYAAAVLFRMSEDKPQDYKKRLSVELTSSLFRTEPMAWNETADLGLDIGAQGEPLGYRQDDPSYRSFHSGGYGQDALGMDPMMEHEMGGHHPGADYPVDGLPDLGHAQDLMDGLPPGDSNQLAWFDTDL

T3: B-cat-Halo (UniProt P35222 1-781, HaloTag NanoBRET 618 Ligand bound to the HaloTag in the assay)
T3 sequence (looked up): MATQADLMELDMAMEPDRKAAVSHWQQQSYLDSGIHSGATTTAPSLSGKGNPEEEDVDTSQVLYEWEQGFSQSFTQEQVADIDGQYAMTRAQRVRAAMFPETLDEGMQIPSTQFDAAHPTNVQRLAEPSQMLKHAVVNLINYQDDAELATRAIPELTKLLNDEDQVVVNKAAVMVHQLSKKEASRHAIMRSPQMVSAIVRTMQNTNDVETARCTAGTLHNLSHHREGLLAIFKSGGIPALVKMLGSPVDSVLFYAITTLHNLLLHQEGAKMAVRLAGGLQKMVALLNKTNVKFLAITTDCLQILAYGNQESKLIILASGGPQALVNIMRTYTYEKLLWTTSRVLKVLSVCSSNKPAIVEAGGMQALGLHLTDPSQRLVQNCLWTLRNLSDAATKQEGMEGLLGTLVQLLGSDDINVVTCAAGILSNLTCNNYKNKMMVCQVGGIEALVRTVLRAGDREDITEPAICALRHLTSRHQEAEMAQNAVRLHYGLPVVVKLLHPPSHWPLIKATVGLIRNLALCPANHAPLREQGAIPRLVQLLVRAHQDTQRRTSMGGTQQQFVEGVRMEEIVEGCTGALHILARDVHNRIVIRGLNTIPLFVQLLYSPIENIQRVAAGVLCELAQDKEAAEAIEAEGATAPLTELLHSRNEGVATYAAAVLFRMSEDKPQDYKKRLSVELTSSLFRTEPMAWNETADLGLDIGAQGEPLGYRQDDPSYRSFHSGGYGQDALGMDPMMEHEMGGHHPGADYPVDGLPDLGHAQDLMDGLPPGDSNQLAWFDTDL

B1: I-911 (peptide)
peptide: Ac-[αAllylPro]D[tBuAla][B5(3)]DDAAFN[PyrS2″][3Thi][Bta]QK(mPEG2)-NH2
modifications: staple 1-4, 4-11; not fully specified; printed as Ac-PL3-Asp-Npg-B5-Asp-Asp-Ala-Ala-Phe-Asn-PyrS2-3Thi-BztA-Gln-[mPEG2]Lys-NH2
B2: I-915 (peptide)
peptide: Ac-[αAllylPro]D[tBuAla][B5(3)]DDAAFN[PyrS2(4)][3Thi][Bta]QK(2Napc)-NH2
modifications: staple 1-4, 4-11; reading uncertain; also: printed as Ac-PL3-Asp-Npg-B5-Asp-Asp-Ala-Ala-Phe-Asn-PyrS2-3Thi-BztA-Gln-[2Napc]Lys-NH2
B3: I-916 (peptide)
peptide: Ac-[αAllylPro]D[tBuAla][B5(3)]DDAAFN[PyrS2(4)][3Thi][Bta]QK(1Napc)-NH2
modifications: staple 1-4, 4-11; reading uncertain; also: printed as Ac-PL3-Asp-Npg-B5-Asp-Asp-Ala-Ala-Phe-Asn-PyrS2-3Thi-BztA-Gln-[1Napc]Lys-NH2
B4: I-918 (peptide)
peptide: Ac-[αAllylPro]D[tBuAla][B5(3)]DDAAFN[PyrS2″][3Thi][Bta]QK(Octanoyl)-NH2
modifications: staple 1-4, 4-11; not fully specified; printed as Ac-PL3-Asp-Npg-B5-Asp-Asp-Ala-Ala-Phe-Asn-PyrS2-3Thi-BztA-Gln-[Oct]Lys-NH2
B5: I-919 (peptide)
peptide: Ac-[αAllylPro]D[tBuAla][B5(3)]DDAAFN[PyrS2(4)][3Thi][Bta]QK(AdamantC)-NH2
modifications: staple 1-4, 4-11; reading uncertain; also: printed as Ac-PL3-Asp-Npg-B5-Asp-Asp-Ala-Ala-Phe-Asn-PyrS2-3Thi-BztA-Gln-[AdamantC]Lys-NH2

What follows are binders tested against T1, B-cat-Halo (beta-catenin HaloTag fusion …) (assay: cell-based or functional assay).

Binder | NanoBRET Abs IC50
Ac-[αAllylPro]D[tBuAla][B6]D[Phe(3-COOH)]AAFL[PyrS1][Phe(2-CF3)][Bta]Q-NH2 (staple 1-4, 4-11) [I-2508] | 27.3 µM

The binders below were run against T2, B-cat-Halo (assay: cell-based or functional assay).

Binder | NanoBRET Abs IC50
Ac-[αAllylPro]D[tBuAla][B5(22)]D[(4CF3PhAc)GA]AAFL[PyrS2][3Thi][Bta]Q-NH2 (staple 1-4, 4-11) [I-2236] | 15.3 µM
Ac-[αAllylPro]D[tBuAla][B5(22)]D[(Pic)GA]AAFL[PyrS2][3Thi][Bta]Q-NH2 (staple 1-4, 4-11) [I-2237] | 24.3 µM
Ac-[αAllylPro]D[tBuAla][B5(22)]D[(MorphAc)GA]AAFL[PyrS2][3Thi][Bta]Q-NH2 (staple 1-4, 4-11) [I-2239] | 31.9 µM
Ac-[αAllylPro]D[tBuAla][B5(22)]D[(MePipAc)GA]AAFL[PyrS2][3Thi][Bta]Q-NH2 (staple 1-4, 4-11) [I-2240] | > 20 µM
Ac-[αAllylPro]D[tBuAla][B5(22)]D[(PfPhAc)GA]AAFL[PyrS2][3Thi][Bta]Q-NH2 (staple 1-4, 4-11) [I-2241] | 17.7 µM
Ac-[αAllylPro]D[tBuAla][B5(3)]D[(PfBz)GA]AAFL[PyrS2(4)][3Thi][Bta]Q-NH2 (staple 1-4, 4-11; reading uncertain) [I-2242] | 21.4 µM
Ac-[αAllylPro]D[tBuAla][B5(22)]D[(NdiMeButC)GAbu]AAFL[PyrS2][3Thi][Bta]Q-NH2 (staple 1-4, 4-11) [I-2243] | 25.2 µM

What follows are binders tested against T3, B-cat-Halo (assay: cell-based or functional assay).

Binder | NanoBRET Abs IC50
Ac-[αAllylPro]D[tBuAla][B5(3)]DDAAFN[PyrS2″][3Thi][Bta]QK(Me2NCBz)-NH2 (staple 1-4, 4-11) [I-910] | 29.8 µM
B1 | 22.9 µM
B2 | 15.5 µM
B3 | 13.6 µM
Ac-[αAllylPro]D[tBuAla][B5(3)]DDAAFN[PyrS2″][3Thi][Bta]QK(Butyryl)-NH2 (staple 1-4, 4-11) [I-917] | 19.7 µM
B4 | 11.1 µM
B5 | 15.2 µM
Ac-[αAllylPro]D[tBuAla][B5(3)]DDAAFN[PyrS2″][3Thi][Bta]QK(Me3AdamantC)-NH2 (staple 1-4, 4-11) [I-920] | 17.7 µM
